Measured values as given in IntAct's records for PubMed 21346153.

B1: Peroxiredoxin-6 (Rattus norvegicus (Rat)), O35244 (parent)
chain: MPGGLLLGDEAPNFEANTTIGHIRFHDFLGDSWGILFSHPRDFTPVCTTELGRAAKLAPEFAKRNVKLIALSIDSVEDHFAWSKDINAYNGAAPTEKLPFPIIDDKDRDLAILLGMLDPAEKDEKGMPVTARVVFIFGPDKKLKLSILYPATTGRNFDEILRVVDSLQLTASNPVATPVDWKKGESVMVLPTLPEEEAKQLFPKGVFTKELPSGKKYLRYTPQP

Variants of: B1
Conditions: with 1433e_human YWHAE

| effect of a mutation on the interaction | Variant |
| --- | --- |
| decreasing interaction strength | S32A |

Variants of: B1
Conditions: with 1433e_mouse Ywhae

| effect of a mutation on the interaction | Variant |
| --- | --- |
| decreasing interaction strength | S32A |
